Results as given in US20260001928A1 (CORTERIA PHARMACEUTICALS, priority 2022, published 2026).
*1 amine or outer side, *2 acyl side, *3 side chain or, on linkers, in order; H or OH if unused. Primed or numbered codes have the meaning given here. Where no end group is shown, it is not given here. Side-chain parts run from the residue outwards. [ ]: non-standard residue; d: D form. The star is where a group is joined. Thp′ = 4-amino-tetrahydro-2H-pyran-4-yl-acetic acid, O=C(CC1(N[*:1])CCOCC1)[*:2]; C20 diacid = O=C(O)CCCCCCCCCCCCCCCCCCC(=O)*; C16 diacid = O=C(O)CCCCCCCCCCCCCCC(=O)*; γGlu = O=C(O)[C@H](CCC(=O)[*:2])N[*:1]; Aib = CC(C)(N)C(=O)O

T1: CRF1R receptor (UniProt P34998 24-415, limits assumed)
T1 sequence (looked up): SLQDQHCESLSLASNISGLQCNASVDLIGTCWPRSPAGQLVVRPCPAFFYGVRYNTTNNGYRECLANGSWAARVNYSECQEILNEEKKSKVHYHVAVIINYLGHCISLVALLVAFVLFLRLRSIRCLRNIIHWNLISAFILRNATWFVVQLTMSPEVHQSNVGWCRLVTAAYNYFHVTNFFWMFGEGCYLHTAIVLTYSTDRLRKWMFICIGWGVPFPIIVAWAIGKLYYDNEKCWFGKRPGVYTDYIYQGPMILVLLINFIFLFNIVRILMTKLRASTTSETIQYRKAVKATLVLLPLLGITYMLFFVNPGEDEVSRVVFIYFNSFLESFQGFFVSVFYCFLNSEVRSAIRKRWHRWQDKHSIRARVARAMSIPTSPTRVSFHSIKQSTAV

B1: SEQ ID NO 213 (peptide)
peptide: Ac-IVLSLD[dV]PIKLK([γGlu-C20 diacid])KILLEQEKQKEQREQAETN[Aib]QILAQV-NH2
SMILES: CC[C@H](C)[C@H](NC(C)=O)C(=O)N[C@H](C(=O)N[C@@H](CC(C)C)C(=O)N[C@@H](CO)C(=O)N[C@@H](CC(C)C)C(=O)N[C@@H](CC(=O)O)C(=O)N[C@@H](C(=O)N1CCC[C@H]1C(=O)N[C@H](C(=O)N[C@@H](CCCCN)C(=O)N[C@@H](CC(C)C)C(=O)N[C@@H](CCCCNC(=O)CC[C@H](NC(=O)CCCCCCCCCCCCCCCCCCC(=O)O)C(=O)O)C(=O)N[C@@H](CCCCN)C(=O)N[C@H](C(=O)N[C@@H](CC(C)C)C(=O)N[C@@H](CC(C)C)C(=O)N[C@@H](CCC(=O)O)C(=O)N[C@@H](CCC(N)=O)C(=O)N[C@@H](CCC(=O)O)C(=O)N[C@@H](CCCCN)C(=O)N[C@@H](CCC(N)=O)C(=O)N[C@@H](CCCCN)C(=O)N[C@@H](CCC(=O)O)C(=O)N[C@@H](CCC(N)=O)C(=O)N[C@@H](CCCNC(=N)N)C(=O)N[C@@H](CCC(=O)O)C(=O)N[C@@H](CCC(N)=O)C(=O)N[C@@H](C)C(=O)N[C@@H](CCC(=O)O)C(=O)N[C@H](C(=O)N[C@@H](CC(N)=O)C(=O)NC(C)(C)C(=O)N[C@@H](CCC(N)=O)C(=O)N[C@H](C(=O)N[C@@H](CC(C)C)C(=O)N[C@@H](C)C(=O)N[C@@H](CCC(N)=O)C(=O)N[C@H](C(N)=O)C(C)C)[C@@H](C)CC)[C@@H](C)O)[C@@H](C)CC)[C@@H](C)CC)C(C)C)C(C)C
B2: SEQ ID NO 211 (peptide)
peptide: Ac-IVLSLD[dV]PIKLK([γGlu-C20 diacid])KILLEQEAQKKQREQAETN[Aib]QILAQV-NH2
SMILES: CC[C@H](C)[C@H](NC(C)=O)C(=O)N[C@H](C(=O)N[C@@H](CC(C)C)C(=O)N[C@@H](CO)C(=O)N[C@@H](CC(C)C)C(=O)N[C@@H](CC(=O)O)C(=O)N[C@@H](C(=O)N1CCC[C@H]1C(=O)N[C@H](C(=O)N[C@@H](CCCCN)C(=O)N[C@@H](CC(C)C)C(=O)N[C@@H](CCCCNC(=O)CC[C@H](NC(=O)CCCCCCCCCCCCCCCCCCC(=O)O)C(=O)O)C(=O)N[C@@H](CCCCN)C(=O)N[C@H](C(=O)N[C@@H](CC(C)C)C(=O)N[C@@H](CC(C)C)C(=O)N[C@@H](CCC(=O)O)C(=O)N[C@@H](CCC(N)=O)C(=O)N[C@@H](CCC(=O)O)C(=O)N[C@@H](C)C(=O)N[C@@H](CCC(N)=O)C(=O)N[C@@H](CCCCN)C(=O)N[C@@H](CCCCN)C(=O)N[C@@H](CCC(N)=O)C(=O)N[C@@H](CCCNC(=N)N)C(=O)N[C@@H](CCC(=O)O)C(=O)N[C@@H](CCC(N)=O)C(=O)N[C@@H](C)C(=O)N[C@@H](CCC(=O)O)C(=O)N[C@H](C(=O)N[C@@H](CC(N)=O)C(=O)NC(C)(C)C(=O)N[C@@H](CCC(N)=O)C(=O)N[C@H](C(=O)N[C@@H](CC(C)C)C(=O)N[C@@H](C)C(=O)N[C@@H](CCC(N)=O)C(=O)N[C@H](C(N)=O)C(C)C)[C@@H](C)CC)[C@@H](C)O)[C@@H](C)CC)[C@@H](C)CC)C(C)C)C(C)C
B3: SEQ ID NO 212 (peptide)
peptide: Ac-IVLSLD[dV]PIKLK([γGlu-C20 diacid])KILLEQEKQKAQREQAETN[Aib]QILAQV-NH2
SMILES: CC[C@H](C)[C@H](NC(C)=O)C(=O)N[C@H](C(=O)N[C@@H](CC(C)C)C(=O)N[C@@H](CO)C(=O)N[C@@H](CC(C)C)C(=O)N[C@@H](CC(=O)O)C(=O)N[C@@H](C(=O)N1CCC[C@H]1C(=O)N[C@H](C(=O)N[C@@H](CCCCN)C(=O)N[C@@H](CC(C)C)C(=O)N[C@@H](CCCCNC(=O)CC[C@H](NC(=O)CCCCCCCCCCCCCCCCCCC(=O)O)C(=O)O)C(=O)N[C@@H](CCCCN)C(=O)N[C@H](C(=O)N[C@@H](CC(C)C)C(=O)N[C@@H](CC(C)C)C(=O)N[C@@H](CCC(=O)O)C(=O)N[C@@H](CCC(N)=O)C(=O)N[C@@H](CCC(=O)O)C(=O)N[C@@H](CCCCN)C(=O)N[C@@H](CCC(N)=O)C(=O)N[C@@H](CCCCN)C(=O)N[C@@H](C)C(=O)N[C@@H](CCC(N)=O)C(=O)N[C@@H](CCCNC(=N)N)C(=O)N[C@@H](CCC(=O)O)C(=O)N[C@@H](CCC(N)=O)C(=O)N[C@@H](C)C(=O)N[C@@H](CCC(=O)O)C(=O)N[C@H](C(=O)N[C@@H](CC(N)=O)C(=O)NC(C)(C)C(=O)N[C@@H](CCC(N)=O)C(=O)N[C@H](C(=O)N[C@@H](CC(C)C)C(=O)N[C@@H](C)C(=O)N[C@@H](CCC(N)=O)C(=O)N[C@H](C(N)=O)C(C)C)[C@@H](C)CC)[C@@H](C)O)[C@@H](C)CC)[C@@H](C)CC)C(C)C)C(C)C
B4: SEQ ID NO 209 (peptide)
peptide: Ac-IVLSLD[dV]PIKLK([γGlu-C20 diacid])KILLEQEKQK[Aib]QREQAETN[Aib]QILAQV-NH2
SMILES: CC[C@H](C)[C@H](NC(C)=O)C(=O)N[C@H](C(=O)N[C@@H](CC(C)C)C(=O)N[C@@H](CO)C(=O)N[C@@H](CC(C)C)C(=O)N[C@@H](CC(=O)O)C(=O)N[C@@H](C(=O)N1CCC[C@H]1C(=O)N[C@H](C(=O)N[C@@H](CCCCN)C(=O)N[C@@H](CC(C)C)C(=O)N[C@@H](CCCCNC(=O)CC[C@H](NC(=O)CCCCCCCCCCCCCCCCCCC(=O)O)C(=O)O)C(=O)N[C@@H](CCCCN)C(=O)N[C@H](C(=O)N[C@@H](CC(C)C)C(=O)N[C@@H](CC(C)C)C(=O)N[C@@H](CCC(=O)O)C(=O)N[C@@H](CCC(N)=O)C(=O)N[C@@H](CCC(=O)O)C(=O)N[C@@H](CCCCN)C(=O)N[C@@H](CCC(N)=O)C(=O)N[C@@H](CCCCN)C(=O)NC(C)(C)C(=O)N[C@@H](CCC(N)=O)C(=O)N[C@@H](CCCNC(=N)N)C(=O)N[C@@H](CCC(=O)O)C(=O)N[C@@H](CCC(N)=O)C(=O)N[C@@H](C)C(=O)N[C@@H](CCC(=O)O)C(=O)N[C@H](C(=O)N[C@@H](CC(N)=O)C(=O)NC(C)(C)C(=O)N[C@@H](CCC(N)=O)C(=O)N[C@H](C(=O)N[C@@H](CC(C)C)C(=O)N[C@@H](C)C(=O)N[C@@H](CCC(N)=O)C(=O)N[C@H](C(N)=O)C(C)C)[C@@H](C)CC)[C@@H](C)O)[C@@H](C)CC)[C@@H](C)CC)C(C)C)C(C)C

target: T1, CRF1R receptor; assay: cell-based or functional assay

| Emax (% I) | EC50 | Binder |
| --- | --- | --- |
| 27% |  | B1 |
| 26% | > 250 nM | IVLSLD[dV]PIKLK([γGlu-C16 diacid])QILLKQERQKKQREQAEKN[Aib]QILEQV-NH2 [SEQ ID NO 10] |
| 73% | 39.9 nM | B2 |
| 41% | 229 nM | B3 |
| 21% |  | B4 |
| 35% | > 250 nM | Ac-IVLSLD[dV]PIKLK([γGlu-C20 diacid])KILLEQEKQKKQREQAETN[Thp′]QILAQV-NH2 [SEQ ID NO 210] |

target: human corticotropin-releasing factor 2a (CRF2a receptor) (human), Q13324; assay: cell-based or functional assay
Sequence (Q13324 20-411): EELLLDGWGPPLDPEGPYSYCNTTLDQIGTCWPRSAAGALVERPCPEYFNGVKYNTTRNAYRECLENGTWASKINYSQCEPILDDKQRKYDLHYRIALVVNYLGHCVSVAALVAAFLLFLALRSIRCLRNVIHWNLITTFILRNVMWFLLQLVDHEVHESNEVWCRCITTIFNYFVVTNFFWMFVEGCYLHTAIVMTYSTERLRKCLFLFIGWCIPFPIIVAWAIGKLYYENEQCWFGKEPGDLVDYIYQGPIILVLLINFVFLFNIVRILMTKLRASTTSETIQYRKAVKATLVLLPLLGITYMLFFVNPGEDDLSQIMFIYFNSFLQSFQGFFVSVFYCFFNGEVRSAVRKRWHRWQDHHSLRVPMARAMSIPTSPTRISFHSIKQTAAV

| EC50 [nM] (cAMP) | Binder |
| --- | --- |
| 0.22 nM | B1 |
| 0.17 nM | IVLSLD[dV]PIKLK([γGlu-C16 diacid])QILLKQERQKKQREQAEKN[Aib]QILEQV-NH2 [SEQ ID NO 10] |
| 0.15 nM | B2 |
| 0.11 nM | B3 |
| 0.22 nM | B4 |
| 0.21 nM | Ac-IVLSLD[dV]PIKLK([γGlu-C20 diacid])KILLEQEKQKKQREQAETN[Thp′]QILAQV-NH2 [SEQ ID NO 210] |
